PMC6499816, “Molecular determinants regulating selective binding of autophagy adapters and receptors to ATG8 proteins” (Nature Communications, 2019)

Biological target: -L1 (recombinant, BLI) (human), Q9H0R8
Test: BLI
Conditions: modification not given

Chain of -L1 (recombinant, BLI) (human), Q9H0R8 (Q9H0R8 whole entry): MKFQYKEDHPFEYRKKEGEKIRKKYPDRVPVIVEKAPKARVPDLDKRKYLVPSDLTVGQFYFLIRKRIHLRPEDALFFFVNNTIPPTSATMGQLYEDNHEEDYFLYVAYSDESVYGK

With NISQKSDEEDFVKIEDLPLKLTIY [PCM1 V1958I LIR peptide] the Kd was 1.1 µM.

Binder NISQKSDEEDFDKVEDLPLKLTIY [PCM1 V1956D LIR peptide] has a Kd of 5.2 µM.
